The record followed here is publication PMC4446444, “Stable complex formation of CENP-B with the CENP-A nucleosome”.

Series [1] deals with His6-tagged CENP-B DBD complexed with a 21 base-pair DNA (human) (UniProt P07199). The experiment in a line: pull-down; His6-tagged CENP-B DBD with 21 base-pair CENP-B box DNA (50 nM) held on Ni-NTA agarose beads; histone complex 50 nM; 20 mM Tris-HCl pH 8.0, 300 mM NaCl, 60 mM imidazole, 0.3% Tween-20, BSA, 4 °C 60 min; washes with 500 mM NaCl, 30 mM imidazole; 16% SDS-PAGE with Coomassie.

The next series has as its target T1, CENP-B DBD (Homo sapiens, UniProt P07199 1-129).
T1 sequence: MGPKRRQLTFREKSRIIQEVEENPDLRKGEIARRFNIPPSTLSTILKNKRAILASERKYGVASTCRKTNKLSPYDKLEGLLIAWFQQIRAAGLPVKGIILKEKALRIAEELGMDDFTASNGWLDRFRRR
The experiment in a line: competition; naked competitor; DBD-DNA complex increases with DNA amount; Buffer of the EMSA and competition assays not in material (6% native PAGE, ethidium bromide); pull-down: 20 mM Tris-HCl pH 8.0, 300 mM NaCl, 60 mM imidazole, 0.3% Tween-20, 0.01 ug/ul BSA, 4 C, 60 min. Particulars: protein: recombinant; blunt. For orientation: Mobility shift assays separate free from complexed probe on a gel.

In series [1], “H3.1^CATD-H4 complex (from UniProt P68431 1-75; P49450 75-114; P68431 114-136; P62805 1-103)” returned a percent of H4 in the CENP-B-bound fraction against the CENP-A-H4 complex of 4%.

B1: 166-bp alpha-satellite DNA, proximal CENP-B box (naked) (dsDNA)
DNA 1: ATCTATTTGGACCGCATTGAGGCCTTCGTTGGAAACGGGATTTCTTCATTTCATGCTAGACAGAAGAATTCTCAGTAACTTCTTTGTGCTGTGTGTATTCAACTCACAGAGTGGAACGTCCCTTTGCACAGAGCAGATTTGAAACACTCTTTTTGTAGTCGACGAT
DNA 2: ATCGTCGACTACAAAAAGAGTGTTTCAAATCTGCTCTGTGCAAAGGGACGTTCCACTCTGTGAGTTGAATACACACAGCACAAAGAAGTTACTGAGAATTCTTCTGTCTAGCATGAAATGAAGAAATCCCGTTTCCAACGAAGGCCTCAATGCGGTCCAAATAGAT
Regarding B1, the binding result with CENP-B DBD is listed as “binds”.
